Measurements as given in article PMC6996796.
Where “and” joins values, the source holds several entries; their conditions need not be identical. Equal values may be shown once.

Target: branched K11/K48 triubiquitin (Homo sapiens) (UniProt P0CG48)
Assay: NMR
Conditions: modification not given

hHR23A UBA2 UBA2, P54725, sequence (P54725 315-361): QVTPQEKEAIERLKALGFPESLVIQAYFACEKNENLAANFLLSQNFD

Kd: 26 µM and 248 µM
Substance: hHR23A UBA2 UBA2, P54725
